1 molecule from patent US7541034 (US Dept. of Health and Human Services, dated 2009) can be followed below.

Assay [1] deals with T1, CD22 (human, on CA46, Daudi and other human B-cell lines and on fresh patient leukemia cells) (human, UniProt P20273 20-847).
T1 construct: whole, on cells; also called CD22 antigen
T1 sequence (looked up): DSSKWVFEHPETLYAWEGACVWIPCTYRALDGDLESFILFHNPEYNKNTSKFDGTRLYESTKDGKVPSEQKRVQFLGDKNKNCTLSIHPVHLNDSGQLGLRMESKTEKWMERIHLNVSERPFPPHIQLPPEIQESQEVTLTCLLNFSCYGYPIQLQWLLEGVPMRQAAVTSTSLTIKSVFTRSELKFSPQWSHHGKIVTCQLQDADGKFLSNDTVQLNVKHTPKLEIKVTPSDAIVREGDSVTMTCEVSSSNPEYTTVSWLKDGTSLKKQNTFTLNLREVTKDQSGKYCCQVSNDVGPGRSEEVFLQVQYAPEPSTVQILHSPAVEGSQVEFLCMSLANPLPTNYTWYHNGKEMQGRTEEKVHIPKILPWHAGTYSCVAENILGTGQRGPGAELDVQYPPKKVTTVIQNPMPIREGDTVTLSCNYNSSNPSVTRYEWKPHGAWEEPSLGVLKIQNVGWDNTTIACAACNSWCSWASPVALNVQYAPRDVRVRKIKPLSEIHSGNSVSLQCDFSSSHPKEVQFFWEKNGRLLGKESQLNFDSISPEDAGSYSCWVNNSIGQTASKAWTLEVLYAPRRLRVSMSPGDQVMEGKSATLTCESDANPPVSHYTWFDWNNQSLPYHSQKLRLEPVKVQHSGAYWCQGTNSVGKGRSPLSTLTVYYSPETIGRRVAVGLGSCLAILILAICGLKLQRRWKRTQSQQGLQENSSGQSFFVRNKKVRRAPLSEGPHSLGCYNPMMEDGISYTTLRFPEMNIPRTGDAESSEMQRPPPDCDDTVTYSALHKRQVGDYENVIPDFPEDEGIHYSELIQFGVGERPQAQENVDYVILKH
Put plainly: competition of unlabelled IgG against 125I-labelled RFB4 IgG on Daudi cells, 4 C, gamma counting.

Assay [2] addresses T1, CD22 (human, on CA46, Daudi and other …). Put plainly: competition of unlabelled IgG against 125I-labelled RFB4 IgG on CA46 cells, 4 C, gamma counting.
Assay [3] has as its target T2, murine CD22 (murine, UniProt P35329 22-708).
T2 sequence (looked up): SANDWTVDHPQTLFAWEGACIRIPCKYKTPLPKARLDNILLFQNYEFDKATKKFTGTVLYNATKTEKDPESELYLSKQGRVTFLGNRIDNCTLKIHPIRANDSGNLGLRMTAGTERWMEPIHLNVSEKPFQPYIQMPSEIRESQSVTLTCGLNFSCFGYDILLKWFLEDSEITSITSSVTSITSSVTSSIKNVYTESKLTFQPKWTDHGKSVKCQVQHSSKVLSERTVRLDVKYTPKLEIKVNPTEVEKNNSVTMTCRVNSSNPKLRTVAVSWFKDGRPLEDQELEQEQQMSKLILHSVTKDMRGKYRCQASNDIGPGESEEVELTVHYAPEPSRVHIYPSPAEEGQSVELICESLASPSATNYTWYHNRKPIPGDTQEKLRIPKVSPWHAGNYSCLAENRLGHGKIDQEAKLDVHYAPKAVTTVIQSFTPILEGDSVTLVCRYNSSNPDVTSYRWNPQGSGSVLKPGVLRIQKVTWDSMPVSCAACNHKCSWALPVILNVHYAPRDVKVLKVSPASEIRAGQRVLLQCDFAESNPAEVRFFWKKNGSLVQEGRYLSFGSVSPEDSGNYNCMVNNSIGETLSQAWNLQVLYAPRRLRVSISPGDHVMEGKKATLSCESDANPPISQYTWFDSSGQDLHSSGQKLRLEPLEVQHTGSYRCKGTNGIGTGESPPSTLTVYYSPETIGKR
Put plainly: not described (told as the reason for the choice of monkeys).

B1: RFB4 IgG (antibody, V domains shown)
VH: EVQLVESGGGLVKPGGSLKLSCAASGFAFSIYDMSWVRQTPEKRLEWVAYISSGGGTTYYPDTVKGRFTISRDNAKNTLYLQMSSLKSEDTAMYYCARHSGYGSSYGVLFAYWGQGTLVTVSA
VL: DIQMTQTTSSLSASLGDRVTISCRASQDISNYLNWYQQKPDGTVKLLIYYTSILHSGVPSRFSGSGSGTDYSLTISNLEQEDFATYFCQQGNTLPWTFGGGTKLEIK
notes: also called RFB4 mAb; native RFB4 IgG
For B1, the results for the IC50 in assay [1] and in assay [2] were 10 nM and 4.5 nM, respectively. The binding result in assay [3] is “no binding”.
